By EC50 is commonly meant the concentration that produces a half-maximal response. Low values mean an effect from little substance, high ones a need for much substance. As a reminder, the IC50 is the concentration that gives 50% inhibition. What is called Kd is a measure of binding affinity in units of concentration. A lower Kd goes with higher affinity. As usually defined, the koff is a measure of how fast the partners let go of each other. High values mean fast dissociation, low ones slow dissociation. What is called kon is the second-order rate constant of association. A high value points to faster complex formation.

Numbering of substitutions follows the chain as printed. Read-outs that look alike come from different tables or passages of the source.

For assay [1], the target named is T1, human SIRPα v2 on CHOK1 cells (human, UniProt P78324 31-504).
T1 construct: whole, on cells; also called CHOK1-hSIRPα v2; cell surface human SIRPα v2
The experiment in a line: FACS, CHOK1 cells stably expressing human SIRPα v2. The source says:
(§1) Binding activity of the purified chimeric antibodies against human SIRPα variants was detected by FACS assay using CHOK1 cells or 293F cells stably expressing human SIRPα v1 and CHOK1 cells stably expressing human SIRPα v2. […] EC₅₀ and top signal calculated using GraphPad Prism9.0.
Background: Flow cytometry measures light scatter and fluorescence of single cells or particles in a stream.

For assay [2], the target named is T2, human SIRPα v2 ECD recombinant protein (human).
T2 construct: extracellular domain; Coated on the ELISA plate
The experiment in a line: competitive ELISA, plate-coated human SIRPα v2 ECD; blocked ligand: mFc tagged human CD47 ECD. The procedure:
(§2) Competitive ELISA assay was used to determine whether the purified chimeric antibodies can block CD47 and SIRPα interaction. Briefly, antibody and mFc tagged human CD47 ECD recombinant protein were co-incubated with ELISA microplate coated human SIRPα v1 ECD or human SIRPα v2 ECD recombinant protein. The concentration of soluble ECD of CD47 is 25 nM, and the concentration of soluble ECD of SIRPα is 20 nM. After washing, HRP labeled anti-mouse Fc 2nd antibody (Sigma) was added and incubated at 37° C. for 1 hour. Then, 100 μl/well of TMB solution (Biotechnology) was added. After incubation for 15 minutes at room temperature, the reaction was stopped by the addition of 50 μl of 1N HCl. OD 450 nm was read. Blocking ratio was determined by blockade of human SIRPα ECD recombinant protein binding to ELISA microplate coated human CD47 ECD recombinant protein. All antibodies as tested can block interaction between human CD47 and different human SIRPα variants.
On the technique in general: An ELISA detects its analyte on a solid surface through an enzyme-linked reagent.

In assay [3] the target is T3, human SIRPα v1 ECD recombinant protein (human, UniProt P78324 31-373).
T3 construct: extracellular domain; Coated on the ELISA plate
The experiment in a line: competitive ELISA, plate-coated human SIRPα v1 ECD; blocked ligand: mFc tagged human CD47 ECD. On the procedure: as §2

Assay [4] has as its target T4, human SIRPα v1 on CHOK1 cells (human, UniProt P78324 31-504).
T4 construct: whole, on cells; also called CHOK1-hSIRPα v1; cell surface human SIRPα v1
The assay can be described thus: FACS, CHOK1 cells stably expressing human SIRPα v1.
Source text: as §1

Assay [5] deals with T5, Full length human SIRPα v1 with beta-gal fragment (ED) at its C-terminal, in K562 cells (human, UniProt P78324 31-504). The experiment in a line: cell-based or functional assay.
Another assay concerns the target T6, Human SIRPα v2 (human).
T6 construct: also called human SIRPα v2 (antigen of the Biacore assay)
The assay can be described thus: SPR (Biacore), 1:1 binding model. On the procedure:
The humanized antibodies were characterized for binding affinity against human SIRPα v1, human SIRPα v2 using Surface Plasmon Resonance technology (Biacore system). The association and dissociation curves were fit with 1:1 binding model, and the Ka/Kd/KD values for each antibody were calculated.
Background: In SPR one partner is held on a chip, and binding of the other changes the refractive index at the surface.

Assay [6] deals with T2, human SIRPα v2 ECD recombinant protein. The experiment in a line: competitive ELISA, plate-coated human SIRPα v2 ECD; blocked ligand: mFc tagged human CD47 ECD. On the procedure:
as §2
(§3) The humanized antibodies were tested for the ability to block CD47 and SIRPα interaction with competitive ELISA assay (refer to methods described above).
This is another data set of the same source.

Assay [7] has as its target T4, human SIRPα v1 on CHOK1 cells. The assay can be described thus: FACS, CHOK1 cells stably expressing human SIRPα v1. This is another data set of the same source.
For assay [8], the target named is T1, human SIRPα v2 on CHOK1 cells. The assay can be described thus: FACS, CHOK1 cells stably expressing human SIRPα v2. The source holds these as a separate data set.
Assay [9] addresses T3, human SIRPα v1 ECD recombinant protein. The assay can be described thus: competitive ELISA, plate-coated human SIRPα v1 ECD; blocked ligand: mFc tagged human CD47 ECD. On the procedure:
as §2, §3
This is another data set of the same source.

Assay [10] concerns the target T5, Full length human SIRPα v1 with …. The assay can be described thus: cell-based or functional assay. The source holds these as a separate data set.

T4 sequence (P78324 31-504): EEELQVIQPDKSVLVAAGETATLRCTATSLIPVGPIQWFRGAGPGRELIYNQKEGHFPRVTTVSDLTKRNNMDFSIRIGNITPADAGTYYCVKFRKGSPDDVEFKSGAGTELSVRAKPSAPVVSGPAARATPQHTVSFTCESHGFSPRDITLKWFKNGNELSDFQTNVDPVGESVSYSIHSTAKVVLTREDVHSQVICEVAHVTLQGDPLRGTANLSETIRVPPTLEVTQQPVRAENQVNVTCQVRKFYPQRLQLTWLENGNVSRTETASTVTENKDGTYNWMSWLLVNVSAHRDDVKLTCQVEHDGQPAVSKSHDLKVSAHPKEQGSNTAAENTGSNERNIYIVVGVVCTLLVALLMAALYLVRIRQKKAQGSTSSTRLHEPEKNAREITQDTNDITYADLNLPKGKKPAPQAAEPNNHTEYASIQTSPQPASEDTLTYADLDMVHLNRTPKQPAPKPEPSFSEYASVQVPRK
T5 sequence (P78324 31-504): as above
T3 sequence (P78324 31-373): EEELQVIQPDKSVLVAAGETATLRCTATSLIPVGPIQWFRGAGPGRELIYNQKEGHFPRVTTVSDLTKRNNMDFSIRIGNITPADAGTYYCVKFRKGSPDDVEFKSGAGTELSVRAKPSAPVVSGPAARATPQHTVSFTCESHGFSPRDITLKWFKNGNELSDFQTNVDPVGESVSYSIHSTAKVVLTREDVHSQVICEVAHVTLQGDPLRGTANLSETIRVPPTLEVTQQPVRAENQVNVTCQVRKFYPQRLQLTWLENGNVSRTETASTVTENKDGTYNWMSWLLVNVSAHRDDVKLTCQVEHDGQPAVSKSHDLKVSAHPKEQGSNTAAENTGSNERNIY
T1 sequence (P78324 other isoform, or with tags, fused parts or gaps limits assumed): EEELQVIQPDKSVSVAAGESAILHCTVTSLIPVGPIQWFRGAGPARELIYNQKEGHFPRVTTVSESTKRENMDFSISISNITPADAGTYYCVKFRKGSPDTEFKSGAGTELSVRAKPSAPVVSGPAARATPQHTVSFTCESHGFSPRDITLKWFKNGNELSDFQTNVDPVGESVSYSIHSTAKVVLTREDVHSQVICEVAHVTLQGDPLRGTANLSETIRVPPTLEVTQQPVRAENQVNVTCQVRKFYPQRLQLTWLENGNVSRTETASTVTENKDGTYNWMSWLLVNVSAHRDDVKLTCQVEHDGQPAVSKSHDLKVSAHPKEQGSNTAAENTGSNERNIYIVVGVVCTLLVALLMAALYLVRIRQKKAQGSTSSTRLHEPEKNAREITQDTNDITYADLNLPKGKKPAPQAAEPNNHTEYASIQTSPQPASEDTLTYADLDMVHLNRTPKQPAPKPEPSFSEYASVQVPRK

B1: Anti-SIRPα antibody C59 (antibody, V domains shown)
VH: QVQLQQSGPELVKPGASVKMSCKASGYTFSEYVLSWVKQRTGQGLEWIGEIYPGTITTYYNEKFKGKATLTADKSSNTAYIQLTSLTSEDSAVYFCGRFYDYDGGWFAYWGQGTLLTVSA
VL: ENVLTQSPEKMAVSLGQKVTMTCSASSSVSSSDLHWYQQKSGASPKPLIHGTSNLASGVPARFSGSGSGTSYSLTISSVEAEDAATYYCQQWSGYPWTFGGGTNLEIK
notes: Mouse variable regions; tested as purified chimeric antibody; also called 059c
Regarding B1, in [1], the 50% effective concentration (EC50) stood at 12 nM and the “TOP MFI” value came to 19600 MFI. For the same molecule, in [2], the 50% inhibitory concentration (IC50) is 54.1 nM and the TOP blocking was found to be 84.4%. In assay [3], the concentration for half-maximal inhibition (IC50) came to 2.63 nM and the TOP blocking is 97%. Further, in [4], the 50% effective concentration (EC50) worked out at 1.45 nM and the “TOP MFI” value came out at 69800 MFI. In [5], the “IC50 (SHP-1 recruitment blocking)” value turned out to be 0.07 nM and the “TOP blocking (SHP-1 recruitment)” value was 66.9%.

B2: Humanized anti-SIRPα antibody hu025.021 (antibody, V domains shown)
VH: EVQLVQSGAEVKKPGATVKISCKVSGFNIKDYYMHWVQQAPGKGLEWIGRIDPEDAETKYAPKFQGRVTITADTSTNTAYMELSSLRSEDTAVYYCDRGLAYWGQGTLVTVSS
VL: EIVLTQSPATLSLSPGERATLSCSASSSVSSSYLYWYQQKPGQAPKLWIYSTSNLASGIPARFSGSGSGTDYTLTISSLEPEDFAVYYCHQWSSYPYTFGQGTKLEIK
notes: Humanized from C25
As to B2, in the assay with Human SIRPα v2, the Kd came out at 3.39 nM, the koff stood at 0.0056 s⁻¹ and the kon was 1.65e+06 M⁻¹ s⁻¹. Besides, in assay [6], the IC50 came to 1.96 nM and the TOP blocking worked out at 98.3%. In assay [7], the response was half-maximal at 1.08 nM (EC50) and the “TOP MFI” value came out at 56400 MFI. For the same molecule, in assay [8], the EC50 is 0.87 nM and the “TOP MFI” value was 46400 MFI. In [9], the IC50 was 2.07 nM and the TOP blocking is 97.7%. For the same molecule, in assay [10], the “IC50 (SHP-1 recruitment blocking)” value was found to be 0.1 nM and the “TOP blocking (SHP-1 recruitment)” value is 86.3%.

B3: Humanized anti-SIRPα antibody hu025.033 (antibody, V domains shown)
VH: B2 VH with N77D
VL: B2 VL
notes: Humanized from C25
Consider B3, for which, in assay [6], the IC50 was 1.88 nM and the TOP blocking turned out to be 98.3%. In assay [7], a half-maximal effect (EC50) was put at 0.99 nM and the “TOP MFI” value came out at 53800 MFI. Further, in assay [8], a half-maximal effect (EC50) was put at 0.62 nM and the “TOP MFI” value was 39800 MFI. In assay [9], the IC50 stood at 2.22 nM and the TOP blocking worked out at 97.2%. In assay [10], the “IC50 (SHP-1 recruitment blocking)” value was 0.19 nM and the “TOP blocking (SHP-1 recruitment)” value was found to be 84.5%.

B4: Humanized anti-SIRPα antibody hu025.059 (antibody, V domains shown)
VH: B2 VH with V24A
VL: B2 VL
notes: Humanized from C25
As for B4, in the assay with Human SIRPα v2, the dissociation constant (Kd) was 2.76 nM, the koff was 0.00392 s⁻¹ and the kon turned out to be 1.42e+06 M⁻¹ s⁻¹. For the same molecule, in assay [6], the IC50 came out at 2.03 nM and the TOP blocking turned out to be 98.3%. Besides, in assay [7], it took 1.05 nM to reach a half-maximal effect (EC50) and the “TOP MFI” value was found to be 59400 MFI. In assay [8], the concentration for a half-maximal effect (EC50) was determined as 0.75 nM and the “TOP MFI” value worked out at 47300 MFI. In assay [9], the half-maximal inhibitory concentration (IC50) worked out at 2.48 nM and the TOP blocking came to 97.1%. For the same molecule, in assay [10], the “IC50 (SHP-1 recruitment blocking)” value stood at 0.1 nM and the “TOP blocking (SHP-1 recruitment)” value is 78.8%.

B5: Anti-SIRPα antibody C15 (antibody, V domains shown)
VH: EVQLQQSGVEVVQPGASVKLSCTASGFNIEAYYMHWVKQRTEQGLEWIGRIDPEDGESKYAPKFQGKATMTADTSSSTAYLQLSSLTSDDTAVYYCVRGSYEYWGQGTTLTVSS
VL: QIVLTQSPAIMSASPGEKVTLTCSASSSVSSSYLYWYQQKPGSSPKLWIYSTSNLASGVPPRFSGSGSGTSYSLTISSMQAEDAASYFCYQWSSYPYTFGGGTKLEIK
notes: Mouse variable regions; tested as purified chimeric antibody; also called 015c
As to B5, in assay [1], it took 1.58 nM to reach a half-maximal effect (EC50) and the “TOP MFI” value is 50100 MFI. In addition, in [2], the IC50 is 2.45 nM and the TOP blocking amounted to 96.7%. In assay [3], the IC50 amounted to 2.32 nM and the TOP blocking was found to be 96.4%. In assay [4], the half-maximal effective concentration (EC50) is 1.49 nM and the “TOP MFI” value was determined as 80000 MFI. Moreover, in assay [5], the “IC50 (SHP-1 recruitment blocking)” value is 0.09 nM and the “TOP blocking (SHP-1 recruitment)” value was found to be 73.5%.

Source of the values: patent US20240336686A1 (ELPISCIENCE SUZHOU BIOPHARMA, published 2024).
